Source: patent publication US20170349663A1 (Memorial Sloan Kettering, published 2017)

Molecular target: full-length human EphA2 protein on cells (human, UniProt P29317 24-976)
Assay: cell-based or functional assay

Sequence of full-length human EphA2 protein on cells (P29317 24-976): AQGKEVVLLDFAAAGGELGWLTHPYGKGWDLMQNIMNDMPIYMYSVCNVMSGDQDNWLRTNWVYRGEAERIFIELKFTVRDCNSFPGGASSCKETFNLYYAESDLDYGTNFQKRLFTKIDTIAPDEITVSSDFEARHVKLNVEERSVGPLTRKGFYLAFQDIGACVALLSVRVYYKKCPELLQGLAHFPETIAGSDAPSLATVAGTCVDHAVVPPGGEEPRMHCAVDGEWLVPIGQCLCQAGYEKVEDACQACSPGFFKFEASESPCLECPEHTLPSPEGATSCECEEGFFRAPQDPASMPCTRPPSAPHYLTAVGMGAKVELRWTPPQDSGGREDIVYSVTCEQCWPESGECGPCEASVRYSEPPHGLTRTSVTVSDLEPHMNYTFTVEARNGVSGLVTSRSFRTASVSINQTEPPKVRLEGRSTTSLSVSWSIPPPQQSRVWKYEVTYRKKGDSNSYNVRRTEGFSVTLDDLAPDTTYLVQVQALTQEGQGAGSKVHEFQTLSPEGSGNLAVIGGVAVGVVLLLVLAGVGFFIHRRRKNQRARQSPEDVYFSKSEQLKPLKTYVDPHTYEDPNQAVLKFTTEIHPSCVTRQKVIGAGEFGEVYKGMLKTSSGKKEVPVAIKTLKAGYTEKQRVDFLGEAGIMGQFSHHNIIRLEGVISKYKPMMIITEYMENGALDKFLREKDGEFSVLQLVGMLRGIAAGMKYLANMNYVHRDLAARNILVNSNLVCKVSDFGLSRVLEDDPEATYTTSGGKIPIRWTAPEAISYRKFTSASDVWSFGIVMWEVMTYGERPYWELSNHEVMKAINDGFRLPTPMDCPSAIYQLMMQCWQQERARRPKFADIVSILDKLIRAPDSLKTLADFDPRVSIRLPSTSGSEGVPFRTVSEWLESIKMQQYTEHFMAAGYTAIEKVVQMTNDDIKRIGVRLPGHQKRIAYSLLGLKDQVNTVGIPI

- decrease in cell number after 72 hours in culture relative to vehicle control treatment, 0.5 ug, EphA2-high AML cells: 52.6%
- decrease in cell number after 72 hours in culture relative to vehicle control treatment, 1.0 ug, EphA2-high AML cells: 99.3%
B1: anti-EphA2 scFv antibody D2, monomeric scFv-6xHis (scFv)
scFv: EIVLTQSPGTLSLSPGERATLSCRASQSVSSSNLAWYQQKPGQAPRLLIYGASSRATGVPDRFSGSGSGTDFTLTISRLEPEDFAVYYCQQSSSYPWTFGQGTKVEIKRTGGGGSGAGGSGGGGTGGGGSEVQLLESGGGLVQPGGSLRLSCAASGFTFSRYWMHWVRQAPGKGLEWVSSISPYDGETNYADSVKGRFTISRDNSKNTLYLQMNSLRAEDTAVYYCARISEWYNWAVDVFDYWGQGTLVTVSSHHHHHH
